# Laboratory results reported in US20240376151A1, “STAPLED PEPTIDES AND METHODS THEREOF” (FOG PHARMACEUTICALS, INC., priority 2022, published 2024).
# Numbered stars: 1 amine (or outer) side, 2 acyl side, 3 side chain; on linkers, the order of the positions; unused ones are H or OH. Bridge positions count the residues as written; N and C are the ends. Ends that are not written are not given here. Phenylene(1,4-NHCOCH2)2 = O=C(C[*:1])Nc1ccc(NC(=O)C[*:2])cc1
# Key:
# MDM2 = target: T1, MDM2 (Homo sapiens, UniProt Q00987); test: Naive Library Presenter Screening (phage, NGS), MDM2; type: binding; conditions: for interaction data, BLANK: Blank = Media only
# T1 construct: made in house
# T1 sequence (Q00987 25-109): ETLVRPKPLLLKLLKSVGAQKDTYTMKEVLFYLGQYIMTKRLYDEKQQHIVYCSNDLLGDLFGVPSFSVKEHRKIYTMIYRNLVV
# CHIP = target: T2, CHIP (Homo sapiens, UniProt Q9UNE7); test: Naive Library Presenter Screening (phage, NGS), CHIP; type: binding; conditions: for interaction data at Target Concentration 10: CHIP target concentration 10 nM; for interaction data at Target Concentration 30: CHIP target concentration 30 nM; for interaction data at Target Concentration 100: CHIP target concentration 100 nM; for interaction data at Target Concentration 300: CHIP target concentration 300 nM; for interaction data at Target Concentration 1000: CHIP target concentration 1000 nM
# T2 construct: N-term truncated CHIP (also known as STUB1, Uniprot ID: Q9UNE7, residues 23-303); made in house; host or cells: E. coli BL21 CodonPlus
# T2 sequence (Q9UNE7 23-303): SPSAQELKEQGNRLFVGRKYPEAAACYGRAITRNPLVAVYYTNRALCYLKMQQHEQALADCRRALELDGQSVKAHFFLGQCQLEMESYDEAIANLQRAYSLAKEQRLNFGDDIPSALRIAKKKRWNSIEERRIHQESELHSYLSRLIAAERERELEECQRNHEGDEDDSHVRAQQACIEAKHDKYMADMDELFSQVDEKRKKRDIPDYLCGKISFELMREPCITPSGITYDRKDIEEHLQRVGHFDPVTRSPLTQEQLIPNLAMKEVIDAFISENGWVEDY
# Protocol: To conduct phage library screening, previously described procedures were utilized in accordance with the present disclosure.
# Next-generation sequencing was performed as described in accordance with the present disclosure.
# Hit ID and Clustering is performed according to a described procedure in accordance with the present disclosure.
# [1] = MDM2 clusters (C82, C85), first column
# [2] = MDM2 clusters (C82, C85), second column
# [3] = MDM2 clusters (C82, C85), target concentration 10 nM
# [4] = MDM2 clusters (C82, C85), target concentration 30 nM
# [5] = MDM2 clusters (C82, C85), target concentration 100 nM
# [6] = MDM2 clusters (C82, C85), target concentration 300 nM
# [7] = MDM2 clusters (C82, C85), target concentration 1000 nM, first column
# [8] = MDM2 clusters (C82, C85), target concentration 1000 nM, second column
# [9] = MDM2 target concentration 10 nM
# [10] = MDM2 target concentration 30 nM
# [11] = MDM2 target concentration 100 nM
# [12] = MDM2 target concentration 300 nM
# [13] = MDM2 target concentration 1000 nM, first column
# [14] = MDM2 target concentration 1000 nM, second column
Sequence,"interaction data, BLANK (MDM2; [1])","interaction data, BLANK (MDM2; [2])",interaction data at Target Concentration 10 (MDM2; [3]),interaction data at Target Concentration 30 (MDM2; [4]),interaction data at Target Concentration 100 (MDM2; [5]),interaction data at Target Concentration 300 (MDM2; [6]),interaction data at Target Concentration 1000 (MDM2; [7]),interaction data at Target Concentration 1000 (MDM2; [8]),interaction data at Target Concentration 10 (MDM2; [9]),interaction data at Target Concentration 30 (MDM2; [10]),interaction data at Target Concentration 100 (MDM2; [11]),interaction data at Target Concentration 300 (MDM2; [12]),interaction data at Target Concentration 1000 (MDM2; [13]),interaction data at Target Concentration 1000 (MDM2; [14]),interaction data at Target Concentration 10 (CHIP),interaction data at Target Concentration 30 (CHIP),interaction data at Target Concentration 100 (CHIP),interaction data at Target Concentration 300 (CHIP),interaction data at Target Concentration 1000 (CHIP; first column),interaction data at Target Concentration 1000 (CHIP; second column)
"DPAAQECFRAAWRCMQD (linker 7-14 via Phenylene(1,4-NHCOCH2)2 (inferred))",0,0,0,0,25,37,34,29,,,,,,,,,,,,
"DPAAVQCNTAAFQCYWF (linker 7-14 via Phenylene(1,4-NHCOCH2)2 (inferred))",0,0,0,0,23,56,53,69,,,,,,,,,,,,
"DPADIVCQDAAFQCFWW (linker 7-14 via Phenylene(1,4-NHCOCH2)2 (inferred))",0,0,0,1,12,33,46,18,,,,,,,,,,,,
"DPADNRCFQAAWDCAFW (linker 7-14 via Phenylene(1,4-NHCOCH2)2 (inferred))",,,,,,,,,1,0,51,22,20,23,,,,,,
"DPADRDCFSAAWACVIR (linker 7-14 via Phenylene(1,4-NHCOCH2)2 (inferred))",0,0,0,37,188,209,160,215,,,,,,,,,,,,
"DPADSECFQAASDCQYW (linker 7-14 via Phenylene(1,4-NHCOCH2)2 (inferred))",,,,,,,,,7,11,0,0,5,6,,,,,,
"DPAENECFTAAWDCMFF (linker 7-14 via Phenylene(1,4-NHCOCH2)2 (inferred))",,,,,,,,,0,0,7,51,70,40,,,,,,
"DPAERNCFTAAWQCMVW (linker 7-14 via Phenylene(1,4-NHCOCH2)2 (inferred))",0,0,0,23,158,230,135,,,,,,,,,,,,,
"DPAETDCSQAAFWCYWQ (linker 7-14 via Phenylene(1,4-NHCOCH2)2 (inferred))",0,0,1,15,170,133,176,188,,,,,,,,,,,,
"DPAFDSCFSAAWDCMYW (linker 7-14 via Phenylene(1,4-NHCOCH2)2 (inferred))",,,,,,,,,3,0,27,92,65,84,,,,,,
"DPAHNLCFDAAWWCHWQ (linker 7-14 via Phenylene(1,4-NHCOCH2)2 (inferred))",0,0,0,0,9,7,8,11,,,,,,,,,,,,
"DPAHQQCFMAAWRCVVH (linker 7-14 via Phenylene(1,4-NHCOCH2)2 (inferred))",0,0,1,48,230,375,356,327,,,,,,,,,,,,
"DPAHRQCFTAAWRCMMT (linker 7-14 via Phenylene(1,4-NHCOCH2)2 (inferred))",0,0,0,42,149,156,202,149,,,,,,,,,,,,
"DPAHYECTDAAFECYWF (linker 7-14 via Phenylene(1,4-NHCOCH2)2 (inferred))",0,0,0,2,33,74,57,82,,,,,,,,,,,,
"DPAINTCQDAAFWCYWS (linker 7-14 via Phenylene(1,4-NHCOCH2)2 (inferred))",0,0,0,131,203,226,185,315,,,,,,,,,,,,
"DPALFSCDSAAFSCYWY (linker 7-14 via Phenylene(1,4-NHCOCH2)2 (inferred); not fully specified (C-terminus))",0,0,0,0,25,17,25,57,,,,,,,,,,,,
"DPALMQCTEAAFWCYWE (linker 7-14 via Phenylene(1,4-NHCOCH2)2 (inferred); not fully specified (C-terminus))",0,0,0,0,24,36,24,32,,,,,,,,,,,,
"PCWSAWLACEL (linker 2-9 via Phenylene(1,4-NHCOCH2)2 (inferred))",,,,,,,,,,,,,,,0,81,72,130,220,206
"PCYSAWITCES (linker 2-9 via Phenylene(1,4-NHCOCH2)2 (inferred))",,,,,,,,,,,,,,,0,134,286,457,563,538
"PCYSAWIVCSD (linker 2-9 via Phenylene(1,4-NHCOCH2)2 (inferred))",,,,,,,,,,,,,,,4,81,123,444,549,468
"PMCSDAWLFCE (linker 3-10 via Phenylene(1,4-NHCOCH2)2 (inferred))",,,,,,,,,,,,,,,0,0,0,74,143,57
